Reference: patent publication US6566081B1, “Methods of identifying a compound which modulates the non-transcriptional non-map-kinase induced effects of steroid hormones” (The Brigham and Women's Hospital, Inc., priority 1999, dated 2003)

Target: T1, ER-α / PI3-kinase p85α (Homo sapiens, UniProt P03372)
T1 construct: endogenous in cells; host or cells: human endothelial cells (HSVEC), anti-ERα immunoprecipitate
T1 sequence (P03372 1-595): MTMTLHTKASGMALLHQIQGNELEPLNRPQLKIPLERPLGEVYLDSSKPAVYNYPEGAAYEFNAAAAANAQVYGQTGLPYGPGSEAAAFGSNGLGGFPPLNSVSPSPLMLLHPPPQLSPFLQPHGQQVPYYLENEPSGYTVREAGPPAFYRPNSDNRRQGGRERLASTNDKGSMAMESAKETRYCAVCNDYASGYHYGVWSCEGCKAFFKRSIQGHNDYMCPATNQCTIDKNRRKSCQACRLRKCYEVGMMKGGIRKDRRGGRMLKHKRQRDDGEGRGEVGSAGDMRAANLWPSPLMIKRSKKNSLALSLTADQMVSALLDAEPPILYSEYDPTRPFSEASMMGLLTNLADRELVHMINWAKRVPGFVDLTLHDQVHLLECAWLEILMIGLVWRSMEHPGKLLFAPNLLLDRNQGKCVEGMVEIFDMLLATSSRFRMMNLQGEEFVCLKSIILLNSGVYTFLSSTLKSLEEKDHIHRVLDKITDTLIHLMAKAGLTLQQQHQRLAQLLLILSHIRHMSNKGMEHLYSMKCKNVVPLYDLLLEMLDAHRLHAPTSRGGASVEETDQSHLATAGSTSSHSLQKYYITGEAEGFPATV
Assay: ER-α immunoprecipitation: co-precipitated p85α and associated PI3-kinase activity
Format: cell-based
Conditions: ER-α immunoprecipitate

insulin: known activator of the PI3-kinase/Akt pathway
stimulation of ER-α-associated PI3-kinase activity: did not increase or augment
